Test results from patent US10772928B2, “Modulation and detection of a neuronal alternative splicing regulatory network for treatment and diagnosis of neurological disorders” (The Governing Council of the University of Toronto, priority 2014, dated 2020).

Target: T1, nSR100 (Mus musculus, UniProt Q8BKA3)
T1 construct: host or cells: mouse N2A cells
T1 sequence (Q8BKA3 1-608): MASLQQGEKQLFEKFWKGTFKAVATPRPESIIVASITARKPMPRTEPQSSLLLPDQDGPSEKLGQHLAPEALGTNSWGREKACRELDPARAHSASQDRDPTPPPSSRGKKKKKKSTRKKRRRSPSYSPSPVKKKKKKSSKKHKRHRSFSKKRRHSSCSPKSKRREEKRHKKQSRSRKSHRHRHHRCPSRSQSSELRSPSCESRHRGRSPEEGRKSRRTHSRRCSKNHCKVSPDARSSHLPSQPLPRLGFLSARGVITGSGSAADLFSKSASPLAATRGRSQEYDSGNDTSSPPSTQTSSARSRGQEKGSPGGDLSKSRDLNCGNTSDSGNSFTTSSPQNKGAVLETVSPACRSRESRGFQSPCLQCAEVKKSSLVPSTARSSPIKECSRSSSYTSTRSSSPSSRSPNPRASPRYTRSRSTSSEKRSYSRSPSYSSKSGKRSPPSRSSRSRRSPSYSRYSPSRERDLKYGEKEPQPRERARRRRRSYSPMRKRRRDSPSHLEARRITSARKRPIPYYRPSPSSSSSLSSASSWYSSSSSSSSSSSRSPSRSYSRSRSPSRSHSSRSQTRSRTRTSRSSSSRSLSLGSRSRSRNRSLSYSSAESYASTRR
Assay: AP-MS nSR100 interaction partners from mouse N2A cells (Table 5)
Assay type: binding
Conditions: for AvgP (average of the SAINT scores) / MaxP (maximal SAINT score): bait Srrm4; for FoldChange between the prey Avg spectra of the bait and control purifications: bait Srrm4, 0.1 added to prevent division by 0; for AvgSpec (average number of spectra per replicate): bait Srrm4, 2 replicates; for Spectra (number of spectra for the prey in the purification of the bait): AP-MS; for SpecSum: bait Srrm4, sum of spectra over 2 replicates

[1] = bait Srrm4, biological replicate 1 (first number of the cell)
[2] = bait Srrm4, biological replicate 2 (second number of the cell)

From the text: By applying affinity purification coupled to mass-spectrometry (AP-MS), several interaction nSR100 partner proteins were detected that provide insight into mechanisms of post-translational regulation of nSR100 levels.

B1: Ftsjd2 (protein, UniProt Q9DBC3 1-837, looked up)
Cap-specific mRNA …: MKRRTDPECTAPLKKQKRIGELARHLSSTSDDEPLSSVNHAAKASATSLSGSDSETEGKQPCSDDFKDAFKADSLVEGTSSRYSMYNSVSQRLMAKMGFREGEGLGKYSQGRKDIVETSNQKGRRGLGLTLQGFDQELNVDWRDEPEPNACEQVSWFPECTTEIPDSREMSDWMVVGKRKMVIEDETEFCGEELLHSMLKCKSVFDILDGEEMRRARTRANPYEMIRGVFFLNRAAMKMANMDFVFDRMFTNPLDSSGKPLLKESDIDLLYFADVCAGPGGFSEYVLWRKKWHAKGFGMTLKGPNDFKLEDFYSASSELFEPYYGEGGVDGDGDITRPENINAFRNFVLDNTDRKGVHFVMADGGFSVEGQENLQEILSKQLLLCQFLMALSVVRTGGHFVCKTFDLFTPFSVGLIYLLYCCFERVCLFKPITSRPANSERYVVCKGLKVGIDDVREYLFSVNIKLNQLRNTESDVNLVVPLMVIKGDHEFNDYMIRSNESYCSLQIKALAKIHAFVQDTTLSEPRQAEIRKECLQLWKIPDQARVAPSSSDPKFKFFELIKDTDINIFSYKPTLLTAKTLEKIRPVLEYRCMVSGSEQKFLLGLGKSQIYTWDGRQSDRWVKLDLKTELPRDTLLCVEIVHELKGEGKAQRKISAIHILDVLVLNGSDVREQHFNQRIQLAEKFVKAVSKPSRPDMNPIRVKEVYRLEEMEKIFVRLEMKLIKGSGGTPKLSYTGRDDRHFVPTGVYIVRTVNEPWTMGFSKSNNRKFFYNKKTQKSVYALPTESIAPFHTCYYSRLFWEWGDGFHMRDSQKPQDPDKLSKEDVLSFIQSHNPLGP
  AvgP (average of the SAINT scores): 1
  MaxP (maximal SAINT score): 1
  FoldChange between the prey Avg spectra of the bait and control purifications: 40
  AvgSpec (average number of spectra per replicate): 4
  SpecSum: 8
[1]
  Spectra (number of spectra for the prey in the purification of the bait): 4|4
[2]
  Spectra (number of spectra for the prey in the purification of the bait): 4|4

B2: Sf3b3 (protein, UniProt Q921M3 1-1217, looked up)
Splicing factor 3B subunit 3: MFLYNLTLQRATGISFAIHGNFSGTKQQEIVVSRGKILELLRPDPNTGKVHTLLTVEVFGVIRSLMAFRLTGGTKDYIVVGSDSGRIVILEYQPSKNMFEKIHQETFGKSGCRRIVPGQFLAVDPKGRAVMISAIEKQKLVYILNRDAAARLTISSPLEAHKANTLVYHVVGVDVGFENPMFACLEMDYEEADNDPTGEAAANTQQTLTFYELDLGLNHVVRKYSEPLEEHGNFLITVPGGSDGPSGVLICSENYITYKNFGDQPDIRCPIPRRRNDLDDPERGMIFVCSATHKTKSMFFFLAQTEQGDIFKITLETDEDMVTEIRLKYFDTVPVAAAMCVLKTGFLFVASEFGNHYLYQIAHLGDDDEEPEFSSAMPLEEGDTFFFQPRPLKNLVLVDELDSLSPILFCQIADLANEDTPQLYVACGRGPRSSLRVLRHGLEVSEMAVSELPGNPNAVWTVRRHIEDEFDAYIIVSFVNATLVLSIGETVEEVTDSGFLGTTPTLSCSLLGDDALVQVYPDGIRHIRADKRVNEWKTPGKKTIVKCAVNQRQVVIALTGGELVYFEMDPSGQLNEYTERKEMSADVVCMSLANVPPGEQRSRFLAVGLVDNTVRIISLDPSDCLQPLSMQALPAQPESLCIVEMGGTEKQDELGERGSIGFLYLNIGLQNGVLLRTVLDPVTGDLSDTRTRYLGSRPVKLFRVRMQGQEAVLAMSSRSWLSYSYQSRFHLTPLSYETLEFASGFASEQCPEGIVAISTNTLRILALEKLGAVFNQVAFPLQYTPRKFVIHPESNNLIIIETDHNAYTEATKAQRKQQMAEEMVEAAGEDERELAAEMAAAFLNENLPESIFGAPKAGNGQWASVIRVMNPIQGNTLDLVQLEQNEAAFSVAVCRFSNTGEDWYVLVGVAKDLILSPRSVAGGFVYTYKLVNNGEKLEFLHKTPVEEVPAAIAPFQGRVLIGVGKLLRVYDLGKKKLLRKCENKHIANYISGIQTIGHRVIVSDVQESFIWVRYKRNENQLIIFADDTYPRWVTTASLLDYDTVAGADKFGNICVVRLPPNTNDEVDEDPTGNKALWDRGLLNGASQKAEVIMNYHVGETVLSLQKTTLIPGGSESLVYTTLSGGIGILVPFTSHEDHDFFQHVEMHLRSEHPPLCGRDHLSFRSYYFPVKNVIDGDLCEQFNSMEPNKQKNVSEELDRTPPEVSKKLEDIRTRYAF
  AvgP (average of the SAINT scores): 1
  MaxP (maximal SAINT score): 1
  FoldChange between the prey Avg spectra of the bait and control purifications: 3.48
  AvgSpec (average number of spectra per replicate): 97.5
  SpecSum: 195
[1]
  Spectra (number of spectra for the prey in the purification of the bait): 90
[2]
  Spectra (number of spectra for the prey in the purification of the bait): 105

B3: Srrm1 (protein, UniProt Q52KI8 1-946, looked up)
Serine/arginine repetitive …: MDAGFFRGTSAEQDNRFSNKQKKLLKQLKFAECLEKKVDMSKVNLEVIKPWITKRVTEILGFEDDVVIEFIFNQLEVKNPDSKMMQINLTGFLNGKNAREFMGELWPLLLSAQENIAGIPSAFLELKKEEIKQRQIEQEKLASLKKQDEDKDKRDKEEKESSREKRERSRSPRRRKSRSPSPRRRSSPVRRERKRSHSRSPRHRTKSRSPSPAPEKKEKSPELPEPSVRMKDSSVQEATSTSDILKAPKPEPVPEPKEPSPEKNSKKEKEKTRPRSRSRSKSRSRTRSRSPSHTRPRRRHRSRSRSYSPRRRPSPRRRPSPRRRTPPRRMPPPPRHRRSRSPGRRRRRSSASLSGSSSSSSSSRSRSPPKKPPKRTSSPPRKTRRLSPSASPPRRRHRPSSPATPPPKTRHSPTPQQSNRTRKSRVSVSPGRTSGKVTKHKGTEKRESPSPAPKPRKVELSESEEDKGSKMAAADSVQQRRQYRRQNQQSSSDSGSSSTSEDERPKRSHVKNGEVGRRRRHSPSRSASPSPRKRQKETSPRMQMGKRWQSPVTKSSRRRRSPSPPPARRRRSPSPAPPPPPPPPPPRRRRSPTPPPRRRTPSPPPRRRSPSPRRYSPPIQRRYSPSPPPKRRTASPPPPPKRRASPSPPPKRRVSHSPPPKQRSPTVTKRRSPSLSSKHRKGSSPGRSTREARSPQPNKRHSPSPRPRAPQTSSPPPVRRGASASPQGRQSPSPSTRPIRRVSRTPEPKKIKKTAMATQRNIRRVSKSPKADSLSRAASPSPQSVRRVSSSRSVSGSPEPAAKKPPAPPSPVQSQSPSTNWSPAVPAKKAKSPTPSLSPARNSDQEGGGKKKKKKKDKKHKKDKKHKKHKKHKKEKAVTIATPATAAPAAVSAATTTSAQEEPAAAPEPRKETESEAEDDNLDDLERHLREKALRSMRKAQVSPQS
  AvgP (average of the SAINT scores): 1
  MaxP (maximal SAINT score): 1
  FoldChange between the prey Avg spectra of the bait and control purifications: 6.78
  AvgSpec (average number of spectra per replicate): 30.5
  SpecSum: 61
[1]
  Spectra (number of spectra for the prey in the purification of the bait): 25
[2]
  Spectra (number of spectra for the prey in the purification of the bait): 36

B4: Ap2b1 (protein, UniProt Q9DBG3 2-937, looked up)
AP-2 complex subunit beta: TDSKYFTTNKKGEIFELKAELNNEKKEKRKEAVKKVIAAMTVGKDVSSLFPDVVNCMQTDNLELKKLVYLYLMNYAKSQPDMAIMAVNSFVKDCEDPNPLIRALAVRTMGCIRVDKITEYLCEPLRKCLKDEDPYVRKTAAVCVAKLHDINAQMVEDQGFLDSLRDLIADSNPMVVANAVAALSEISESHPNSNLLDLNPQNINKLLTALNECTEWGQIFILDCLSNYNPKDDREAQSICERVTPRLSHANSAVVLSAVKVLMKFLELLPKDSDYYNMLLKKLAPPLVTLLSGEPEVQYVALRNINLIVQKRPEILKQEIKVFFVKYNDPIYVKLEKLDIMIRLASQANIAQVLAELKEYATEVDVDFVRKAVRAIGRCAIKVEQSAERCVSTLLDLIQTKVNYVVQEAIVVIRDIFRKYPNKYESIIATLCENLDSLDEPDARAAMIWIVGEYAERIDNADELLESFLEGFHDESTQVQLTLLTAIVKLFLKKPSETQELVQQVLSLATQDSDNPDLRDRGYIYWRLLSTDPVTAKEVVLSEKPLISEETDLIEPTLLDELICHIGSLASVYHKPPNAFVEGSHGIHRKHLPIHHGSTDAGDSPVGTTTTTNLEQPQVIPSQGDLLGDLLNLDLGPPVNVPQVSSMQMGAVDLLGGGLDSLVGQSFIPSSVPATFAPSPTPAVVSSGLNDLFELSTGIGMAPGGYVAPKAVWLPAVKAKGLEISGTFTHRQGHIYMEMNFTNKALQHMTDFAIQFNKNSFGVIPSTPLAIHTPLMPNQSIDVSLPLNTLGPVMKMEPLNNLQVAVKNNIDVFYFSCLIPLNVLFVEDGKMERQVFLATWKDIPNENELQFQIKECHLNADTVSSKLQNNNVYTIAKRNVEGQDMLYQSLKLTNGIWILAELRIQPGNPNYTLSLKCRAPEVSQYIYQVYDSILKN
  AvgP (average of the SAINT scores): 1
  MaxP (maximal SAINT score): 1
  FoldChange between the prey Avg spectra of the bait and control purifications: 5.13
  AvgSpec (average number of spectra per replicate): 79.5
  SpecSum: 159
[1]
  Spectra (number of spectra for the prey in the purification of the bait): 83
[2]
  Spectra (number of spectra for the prey in the purification of the bait): 76

B5: Rad23b (protein, UniProt P54728 1-416, looked up)
UV excision repair protein …: MQVTLKTLQQQTFKIDIDPEETVKALKEKIESEKGKDAFPVAGQKLIYAGKILSDDTALKEYKIDEKNFVVVMVTKPKAVTTAVPATTQPSSTPSPTAVSSSPAVAAAQAPAPTPALPPTSTPASTAPASTTASSEPAPAGATQPEKPAEKPAQTPVLTSPAPADSTPGDSSRSNLFEDATSALVTGQSYENMVTEIMSMGYEREQVIAALRASFNNPDRAVEYLLMGIPGDRESQAVVDPPPQAVSTGTPQSPAVAAAAATTTATTTTTSGGHPLEFLRNQPQFQQMRQIIQQNPSLLPALLQQIGRENPQLLQQISQHQEHFIQMLNEPVQEAGSQGGGGGGGGGGGGGGGGGIAEAGSGHMNYIQVTPQEKEAIERLKALGFPEGLVIQAYFACEKNENLAANFLLQQNFDED
  AvgP (average of the SAINT scores): 1
  MaxP (maximal SAINT score): 1
  FoldChange between the prey Avg spectra of the bait and control purifications: 35
  AvgSpec (average number of spectra per replicate): 3.5
  SpecSum: 7
[1]
  Spectra (number of spectra for the prey in the purification of the bait): 3
[2]
  Spectra (number of spectra for the prey in the purification of the bait): 4
